Drawing on patent US12679878B2, “CRF2 receptor agonists and their use in therapy” (SANOFI, priority 2020, dated 2026), this text covers EC50 [nM], 0% HSA and EC50 [nM], 0.1% HSA for six molecules.

This experiment addresses human corticotropin-releasing factor 2α (CRF2 α receptor) (human), Q13324. The experiment in a line: cell-based or functional assay.

Starred links: 1 amine or outer side, 2 acyl side, 3 side chain; linkers in the order of their positions; H or OH if unused. Non-standard residues stand in square brackets, D forms with d. Groups on a side chain read outwards from the residue. No end group written: not given here. *: point of attachment. C18 diacid = O=C(O)CCCCCCCCCCCCCCCCC(=O)*; γGlu = O=C(O)[C@H](CCC(=O)[*:2])N[*:1]; Palmitoyl = CCCCCCCCCCCCCCCC(=O)*; AEEA = NCCOCCOCC(=O)O; Aib = CC(C)(N)C(=O)O

human corticotropin-releasing factor 2α (CRF2 α receptor) (human), Q13324, sequence (Q13324 20-411): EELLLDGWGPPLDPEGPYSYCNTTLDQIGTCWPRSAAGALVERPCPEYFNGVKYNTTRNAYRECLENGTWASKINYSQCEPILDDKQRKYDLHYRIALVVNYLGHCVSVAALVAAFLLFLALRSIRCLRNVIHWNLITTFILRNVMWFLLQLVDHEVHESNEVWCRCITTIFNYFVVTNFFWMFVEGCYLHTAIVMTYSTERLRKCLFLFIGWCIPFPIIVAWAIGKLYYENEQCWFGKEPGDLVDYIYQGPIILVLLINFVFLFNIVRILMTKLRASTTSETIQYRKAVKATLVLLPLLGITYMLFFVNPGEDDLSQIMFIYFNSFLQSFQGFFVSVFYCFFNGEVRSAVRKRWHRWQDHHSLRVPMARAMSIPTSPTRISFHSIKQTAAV

B1: SEQ ID NO: 115 (peptide)
peptide: IVLSLDVPIKLK([AEEA-AEEA-γGlu-C18 diacid])QILLKQERQK[Aib]QREQAEKNKQILERV-NH2
modifications: N-terminus assumed
SMILES: CC[C@H](C)[C@H](N)C(=O)N[C@H](C(=O)N[C@@H](CC(C)C)C(=O)N[C@@H](CO)C(=O)N[C@@H](CC(C)C)C(=O)N[C@@H](CC(=O)O)C(=O)N[C@H](C(=O)N1CCC[C@H]1C(=O)N[C@H](C(=O)N[C@@H](CCCCN)C(=O)N[C@@H](CC(C)C)C(=O)N[C@@H](CCCCNC(=O)COCCOCCNC(=O)COCCOCCNC(=O)CC[C@H](NC(=O)CCCCCCCCCCCCCCCCC(=O)O)C(=O)O)C(=O)N[C@@H](CCC(N)=O)C(=O)N[C@H](C(=O)N[C@@H](CC(C)C)C(=O)N[C@@H](CC(C)C)C(=O)N[C@@H](CCCCN)C(=O)N[C@@H](CCC(N)=O)C(=O)N[C@@H](CCC(=O)O)C(=O)N[C@@H](CCCNC(=N)N)C(=O)N[C@@H](CCC(N)=O)C(=O)N[C@@H](CCCCN)C(=O)NC(C)(C)C(=O)N[C@@H](CCC(N)=O)C(=O)N[C@@H](CCCNC(=N)N)C(=O)N[C@@H](CCC(=O)O)C(=O)N[C@@H](CCC(N)=O)C(=O)N[C@@H](C)C(=O)N[C@@H](CCC(=O)O)C(=O)N[C@@H](CCCCN)C(=O)N[C@@H](CC(N)=O)C(=O)N[C@@H](CCCCN)C(=O)N[C@@H](CCC(N)=O)C(=O)N[C@H](C(=O)N[C@@H](CC(C)C)C(=O)N[C@@H](CCC(=O)O)C(=O)N[C@@H](CCCNC(=N)N)C(=O)N[C@H](C(N)=O)C(C)C)[C@@H](C)CC)[C@@H](C)CC)[C@@H](C)CC)C(C)C)C(C)C
For B1, the EC50 [nM], 0% HSA was determined as 2.77 nM.

B2: SEQ ID NO: 110 (peptide)
peptide: IVLSLDVPIKLK([AEEA-AEEA-γGlu-C18 diacid])QILLKQERQK[Aib]QRQQAETNKQILAQV-NH2
modifications: N-terminus assumed
SMILES: CC[C@H](C)[C@H](N)C(=O)N[C@H](C(=O)N[C@@H](CC(C)C)C(=O)N[C@@H](CO)C(=O)N[C@@H](CC(C)C)C(=O)N[C@@H](CC(=O)O)C(=O)N[C@H](C(=O)N1CCC[C@H]1C(=O)N[C@H](C(=O)N[C@@H](CCCCN)C(=O)N[C@@H](CC(C)C)C(=O)N[C@@H](CCCCNC(=O)COCCOCCNC(=O)COCCOCCNC(=O)CC[C@H](NC(=O)CCCCCCCCCCCCCCCCC(=O)O)C(=O)O)C(=O)N[C@@H](CCC(N)=O)C(=O)N[C@H](C(=O)N[C@@H](CC(C)C)C(=O)N[C@@H](CC(C)C)C(=O)N[C@@H](CCCCN)C(=O)N[C@@H](CCC(N)=O)C(=O)N[C@@H](CCC(=O)O)C(=O)N[C@@H](CCCNC(=N)N)C(=O)N[C@@H](CCC(N)=O)C(=O)N[C@@H](CCCCN)C(=O)NC(C)(C)C(=O)N[C@@H](CCC(N)=O)C(=O)N[C@@H](CCCNC(=N)N)C(=O)N[C@@H](CCC(N)=O)C(=O)N[C@@H](CCC(N)=O)C(=O)N[C@@H](C)C(=O)N[C@@H](CCC(=O)O)C(=O)N[C@H](C(=O)N[C@@H](CC(N)=O)C(=O)N[C@@H](CCCCN)C(=O)N[C@@H](CCC(N)=O)C(=O)N[C@H](C(=O)N[C@@H](CC(C)C)C(=O)N[C@@H](C)C(=O)N[C@@H](CCC(N)=O)C(=O)N[C@H](C(N)=O)C(C)C)[C@@H](C)CC)[C@@H](C)O)[C@@H](C)CC)[C@@H](C)CC)C(C)C)C(C)C
With B2, the EC50 [nM], 0% HSA was found to be 0.18 nM.

IVLSLDVPIKLK([AEEA-AEEA-γGlu-C18 diacid])QILLKQERQKKQRQQAETNKQILAQV-NH2 [SEQ ID NO: 113] gave an EC50 [nM], 0% HSA of 0.1 nM and an EC50 [nM], 0.1% HSA of 11.9 nM.

For IVLSLDVPIKLK([AEEA-AEEA-γGlu-C18 diacid])QILLEQARQK[Aib]QRAQAETNKRILERV-NH2 [SEQ ID NO: 114], the EC50 [nM], 0% HSA amounted to 0.16 nM and the EC50 [nM], 0.1% HSA turned out to be 12.4 nM.

B3: SEQ ID NO: 8 (peptide)
peptide: FTLSLDVPTKIK([γGlu-Palmitoyl])QKLLKQEKQKKQRQKAKTAAQILAQV-NH2
modifications: N-terminus assumed
SMILES: CCCCCCCCCCCCCCCC(=O)N[C@@H](CCC(=O)NCCCC[C@H](NC(=O)[C@@H](NC(=O)[C@H](CCCCN)NC(=O)[C@@H](NC(=O)[C@@H]1CCCN1C(=O)[C@@H](NC(=O)[C@H](CC(=O)O)NC(=O)[C@H](CC(C)C)NC(=O)[C@H](CO)NC(=O)[C@H](CC(C)C)NC(=O)[C@@H](NC(=O)[C@@H](N)Cc1ccccc1)[C@@H](C)O)C(C)C)[C@@H](C)O)[C@@H](C)CC)C(=O)N[C@@H](CCC(N)=O)C(=O)N[C@@H](CCCCN)C(=O)N[C@@H](CC(C)C)C(=O)N[C@@H](CC(C)C)C(=O)N[C@@H](CCCCN)C(=O)N[C@@H](CCC(N)=O)C(=O)N[C@@H](CCC(=O)O)C(=O)N[C@@H](CCCCN)C(=O)N[C@@H](CCC(N)=O)C(=O)N[C@@H](CCCCN)C(=O)N[C@@H](CCCCN)C(=O)N[C@@H](CCC(N)=O)C(=O)N[C@@H](CCCNC(=N)N)C(=O)N[C@@H](CCC(N)=O)C(=O)N[C@@H](CCCCN)C(=O)N[C@@H](C)C(=O)N[C@@H](CCCCN)C(=O)N[C@H](C(=O)N[C@@H](C)C(=O)N[C@@H](C)C(=O)N[C@@H](CCC(N)=O)C(=O)N[C@H](C(=O)N[C@@H](CC(C)C)C(=O)N[C@@H](C)C(=O)N[C@@H](CCC(N)=O)C(=O)N[C@H](C(N)=O)C(C)C)[C@@H](C)CC)[C@@H](C)O)C(=O)O
For the molecule B3, the EC50 [nM], 0% HSA came out at 0.2 nM.

B4: SEQ ID NO: 112 (peptide)
peptide: IVLSLDVPIKLK([AEEA-AEEA-γGlu-C18 diacid])QILLKQERQKKQREKAETNKQILAQV-NH2
modifications: N-terminus assumed
SMILES: CC[C@H](C)[C@H](N)C(=O)N[C@H](C(=O)N[C@@H](CC(C)C)C(=O)N[C@@H](CO)C(=O)N[C@@H](CC(C)C)C(=O)N[C@@H](CC(=O)O)C(=O)N[C@H](C(=O)N1CCC[C@H]1C(=O)N[C@H](C(=O)N[C@@H](CCCCN)C(=O)N[C@@H](CC(C)C)C(=O)N[C@@H](CCCCNC(=O)COCCOCCNC(=O)COCCOCCNC(=O)CC[C@H](NC(=O)CCCCCCCCCCCCCCCCC(=O)O)C(=O)O)C(=O)N[C@@H](CCC(N)=O)C(=O)N[C@H](C(=O)N[C@@H](CC(C)C)C(=O)N[C@@H](CC(C)C)C(=O)N[C@@H](CCCCN)C(=O)N[C@@H](CCC(N)=O)C(=O)N[C@@H](CCC(=O)O)C(=O)N[C@@H](CCCNC(=N)N)C(=O)N[C@@H](CCC(N)=O)C(=O)N[C@@H](CCCCN)C(=O)N[C@@H](CCCCN)C(=O)N[C@@H](CCC(N)=O)C(=O)N[C@@H](CCCNC(=N)N)C(=O)N[C@@H](CCC(=O)O)C(=O)N[C@@H](CCCCN)C(=O)N[C@@H](C)C(=O)N[C@@H](CCC(=O)O)C(=O)N[C@H](C(=O)N[C@@H](CC(N)=O)C(=O)N[C@@H](CCCCN)C(=O)N[C@@H](CCC(N)=O)C(=O)N[C@H](C(=O)N[C@@H](CC(C)C)C(=O)N[C@@H](C)C(=O)N[C@@H](CCC(N)=O)C(=O)N[C@H](C(N)=O)C(C)C)[C@@H](C)CC)[C@@H](C)O)[C@@H](C)CC)[C@@H](C)CC)C(C)C)C(C)C
For the molecule B4, the EC50 [nM], 0% HSA was 0.66 nM and the EC50 [nM], 0.1% HSA was determined as 68.9 nM.
